Data reported in patent publication US20170037149A1 (Amgen, published 2017).
Where a chain is given by its changes, count along the chain named.

B1: FL-35 scFv (scFv)
scFv: QVTLKESGPALVKPTETLTLTCTVSGFSLNNARMGVSWIRQPPGKALEWLAHIFSNDEKSYSTSLKNRLTISKDSSKTQVVLTMTNVDPVDTATYYCARIVGYGTGWYGFFDYWGQGTQVTVSSGGGGSGGGGSGGGGSDIQMTQSPSSLSASVGDRVTITCRASQDIRDDLVWYQQKPGKAPKRLIYGTSTLQSGVPSRFSGSGSGTEFTLTISSLQPEDFATYYCLQHHSYPLTFGGGTKLEIK
notes: periplasmic prep
B2: FL-19 scFv (scFv)
scFv: QVTLKESGPTLVKPTETLTLTCTVSGFSLSYARMGVSWIRQPPGKALEWLAQIFSNDEKSYSTSLKSRLTISKDTSKSQVVLTMTDMDPEDTATYYCARIVGYGTGWYGYFDYWGQGTQVTVSSGGGGSGGGGSGGGGSDIQMTQSPSSLSASVGDRVTITCRASQDIGDDLGWYQQKPGKAPKRLIYAASTLQSGVPFRFSGSGSGTDFTLTISSLQPEDFATYYCLQHNSYPLTFGGGTKVEIK
notes: periplasmic prep
B3: FL-17 scFv (scFv)
scFv: QVTLKESGPTLVKPTETLTLTCTVSGFSLSNARMGVSWIRQPPGKALEWLANIFSNDEKSYSTSLKSRLTISKGTSKSQVVLTMTNVNPVDTGTYYCARIVGYGSGWYGYFDYWGQGTLVTVSSGGGGSGGGGSGGGGSDIQMTQSPSSLSASVGDRVTITCRASQDIRNDLGWYQQKPGKAPKRLIYATSIRQSGVPSRFTGSGSGTEFTLTISGLQPEDFATYFCLQHNSFPLTFGGGTKVEIK
notes: periplasmic prep
B4: FL-40 scFv (scFv)
scFv: B3 scFv with A46C, G239C
notes: periplasmic prep
B5: FL-8 scFv (scFv)
scFv: QVTLKESGPALVKPTETLTLTCTVSGFSLSYARMGVSWIRQPPGKALEWLAQIFSNDEKSYSTSLKSRLTISKGTSNSQVVLTMTNMDPEDTATYYCARIVGYGTGWYGFFDYWGQGILVTVSSGGGGSGGGGSGGGGSDIQMTQSPSSLSASVGDRVTITCRASQGIRNDLGWYQQKPGKAPKRLIYAASSLQSGVPSRFSGSGSGTEFTLTISSLQPEDFATYYCLQHNSYPLTFGGGTKVDIK
notes: periplasmic prep
B6: FL-31 scFv (scFv)
scFv: B5 scFv with E16Q, V24F, Y31N, Q52H, G74D, N77K, N86D, A164T, D244E
notes: periplasmic prep
B7: FL-1 scFv (scFv)
scFv: QVTLKESGPVLVKPTETLTLTCTVSGFSLINARMGVSWIRQPPGKALEWLAHIFSNAEKSYRTSLKSRLTISKDTSKSQVVLTMTNMDPVDTATYYCARIPGYGGNGDYHYYGMDVWGQGTTVTVSSGGGGSGGGGSGGGGSDIQMTQSPSSLSASLGDRVTITCRASQGIRNDLGWYQQKPGKAPKRLIYASSTLQSGVPSRFSGSGSGTEFTLTISSLQPEDFATYYCLQHNNFPWTFGQGTKVEIK
notes: periplasmic prep
B8: FL-2 scFv (scFv)
scFv: QVTLKESGPVLVKPTETLTLTCTVSGFSLRNARMGVSWIRQPPGKALEWLAHIFSNDEKTYSTSLKSRLTISRDTSKGQVVLTMTKMDPVDTATYYCARIPYYGSGSHNYGMDVWGQGTTVTVSSGGGGSGGGGSGGGGSDIQMTQSPSSLSASVGDRVTITCRASQDIRNDFGWYQQKPGKAPQRLLYAASTLQSGVPSRFSGSGSGTEFTLTISSLQPEDFATYYCLQYNTYPWTFGQGTKVEIK
notes: periplasmic prep
B9: FL-30 scFv (scFv)
scFv: QVTLKESGPVLVKPTQTLTLTCTFSGFSLSNARMGVSWIRQPPGKALEWLALIYWNDDKRYSPSLKSRLTITKDTSKNQVVLTMTNMDPVDTATYYCARMVGYGSGWYAYFDYWGQGTLVTVSSGGGGSGGGGSGGGGSDIQMTQSPSSLSASVGDRVTITCRASQGIRNDLGWYQQKPGKAPKRLIYAASSLQSGVPSRFSGSGSGTEFTLTISSLQPEDFATYYCLQHNSYPLTFGGGTKVEIK
notes: periplasmic prep
B10: FL-7 scFv (scFv)
scFv: QVTLKESGPTLVKPTETLTLTCTVSGFSLNNARMGVSWIRQPPGKALEWLAHIFSNDEKSYSTSLKNRLTISKDSSKTQVVLTMTNVDPVDTATYYCARIVGYGTGWFGYFDYWGQGTQVTVSSGGGGSGGGGSGGGGSDIQMTQSPSSLSASVGDRVTITCRASQDIRTDLAWYQQKPGKAPKRLIYAASSLQSGVPSRFSGSGSGTEFTLTISSLQPEDFATYYCLQHNRYPLTFGGGTKVDIK
notes: periplasmic prep
B11: FL-3 scFv (scFv)
scFv: QVTLKESGPALVKPTETLTLTCTVSGFSLSNARMAVSWIRQPPGKALEWLAHIFSNGEKSYSTSLKSRLTISKDTSKTQVVLTMTNTDPVDTATYFCARIVGYSDWLLPFDHWGQGIMVTVSSGGGGSGGGGSGGGGSDIQMTQSPSSLSASVGDRVTITCRASQNINRFLNWYQQKPGKAPKLLIYAASSLQSGVPSRFSGSGSGTDFTLTISSLQPEDFATYYCLQHNSYPWTFGQGTKVDIK
notes: periplasmic prep
B12: FL-18 scFv (scFv)
scFv: QVTLKESGPVLVKPTQTLTLTCTFSGFSLSNARMGVSWIRQPPGKALEWLAHIFSNDEKSFSTSLKNRLTISKDTSKSQVVLTMTNMDPVDTATYYCARMVGYGSGWYAYFDYWGQGTQVTVSSGGGGSGGGGSGGGGSDIQMTQSPSSLSASVGDRVTITCRASQSISSYLNWYQQKPGKAPKLLIYAASSLQSGVPSRFSGSGSGTDFTLTISSLQPEDFATYYCLQHNSYPLTFGGGTKVEIK
notes: periplasmic prep
B13: FL-41 scFv (scFv)
scFv: B12 scFv with A46C, G239C
notes: periplasmic prep

The binders below were run against T1, human FLT3 (human, UniProt P36888 27-993) (assay: FACS, scFv on CHO-human FLT3 pre-incubated with FLT3 ligand (competitor)).
T1 construct: On transfected CHO cells, or on the FLT3 positive human AML cell lines EOL-1 / MV4-11 where the row says so; also called hu FLT3; full length human FLT3
Experimental: The detection was performed using mouse anti-FLAG+PE-conjugated goat anti-mouse and the Fluorescence median detected by FACS (median (+ligand)/median (w/o ligand)*100%)
Afterwards cells were not washed but directly stained with FLT3 binder (scFv's). […] As negative control, cells were incubated with an unspecific scFv instead of FLT3 scFv.
For the evaluation of the data, the fluorescence median was detected by FACS.

Binder	median [+ligand]/median [w/o ligand]*100 [%]
B1	≥ 75
B2	≥ 75
B3	≥ 75
B4	≥ 75
B5	≥ 75
B6	≥ 75
B7	≥ 75
B8	≥ 75
B9	≥ 75
B10	≥ 75
B11	≥ 75
B12	≥ 75
B13	≥ 75
